The record followed here is patent US20240287150A1 (Harvard, published 2024).

The target of this assay is T1, EPO receptor (EPOR) on TF-1 cells (human, UniProt P19235 25-508).
T1 sequence (looked up): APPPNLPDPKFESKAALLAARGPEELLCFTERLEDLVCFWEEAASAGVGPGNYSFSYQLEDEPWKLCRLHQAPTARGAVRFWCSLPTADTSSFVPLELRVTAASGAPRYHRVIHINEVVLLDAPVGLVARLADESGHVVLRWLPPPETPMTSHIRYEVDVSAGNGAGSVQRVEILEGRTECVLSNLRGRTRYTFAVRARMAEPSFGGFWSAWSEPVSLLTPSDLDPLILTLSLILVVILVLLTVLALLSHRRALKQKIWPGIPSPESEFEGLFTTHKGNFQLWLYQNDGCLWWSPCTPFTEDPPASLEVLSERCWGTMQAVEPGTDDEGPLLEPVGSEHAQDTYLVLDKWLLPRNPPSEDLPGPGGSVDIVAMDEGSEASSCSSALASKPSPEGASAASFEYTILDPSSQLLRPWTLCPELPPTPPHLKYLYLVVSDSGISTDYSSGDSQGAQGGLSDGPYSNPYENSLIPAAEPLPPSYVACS
As to the kind of experiment: cell-based or functional assay.

For “Darbepoetin (Aranesp), hyperglycosylated EPO (ligand)”, the EC50 relative to epoetin alfa, TF-1 cell proliferation came out at 14.2 fold.
